{"source": "patent US20110177084A1", "about": "(RIKEN, published 2011)", "key": {"[1]": {"molecular_target": "T1, mouse Mincle (Macrophage inducible C-type lectin) (mouse, UniProt Q9R0Q8 1-214)", "T1 construct": "whole, on cells; Expressed from cDNA in 293T, 2B4 and RBL-2H3 cells, or endogenous in mouse peritoneal macrophages; also called Clec4e; Clecsf9", "T1 sequence (looked up)": "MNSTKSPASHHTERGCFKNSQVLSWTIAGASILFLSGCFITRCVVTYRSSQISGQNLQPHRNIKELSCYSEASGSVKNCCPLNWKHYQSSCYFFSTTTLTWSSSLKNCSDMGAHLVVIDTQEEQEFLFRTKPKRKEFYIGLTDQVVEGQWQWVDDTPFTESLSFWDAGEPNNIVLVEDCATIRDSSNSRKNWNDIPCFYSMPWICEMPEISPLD", "assay": "immunoprecipitation with anti-Mincle polyclonal antibody from macrophage lysate, anti-FcRγ blot"}, "[2]": {"molecular_target": "T2, hIgG1 Fc (Ig) (human, UniProt P01857-1 99-330 = IgG part, limits assumed)", "T2 construct": "domain: hIgG1 Fc; Control for Ig-Mincle; also called control Ig", "assay": "pull-down from 2B4 dead cell lysate with Ig on Protein G Sepharose, silver staining, no Ca2+"}, "[3]": {"molecular_target": "damaged-DNA binding protein 1 (DDB1) (UniProt Q3U1J4 2-1140)", "sequence (Q3U1J4 2-1140 limits assumed)": "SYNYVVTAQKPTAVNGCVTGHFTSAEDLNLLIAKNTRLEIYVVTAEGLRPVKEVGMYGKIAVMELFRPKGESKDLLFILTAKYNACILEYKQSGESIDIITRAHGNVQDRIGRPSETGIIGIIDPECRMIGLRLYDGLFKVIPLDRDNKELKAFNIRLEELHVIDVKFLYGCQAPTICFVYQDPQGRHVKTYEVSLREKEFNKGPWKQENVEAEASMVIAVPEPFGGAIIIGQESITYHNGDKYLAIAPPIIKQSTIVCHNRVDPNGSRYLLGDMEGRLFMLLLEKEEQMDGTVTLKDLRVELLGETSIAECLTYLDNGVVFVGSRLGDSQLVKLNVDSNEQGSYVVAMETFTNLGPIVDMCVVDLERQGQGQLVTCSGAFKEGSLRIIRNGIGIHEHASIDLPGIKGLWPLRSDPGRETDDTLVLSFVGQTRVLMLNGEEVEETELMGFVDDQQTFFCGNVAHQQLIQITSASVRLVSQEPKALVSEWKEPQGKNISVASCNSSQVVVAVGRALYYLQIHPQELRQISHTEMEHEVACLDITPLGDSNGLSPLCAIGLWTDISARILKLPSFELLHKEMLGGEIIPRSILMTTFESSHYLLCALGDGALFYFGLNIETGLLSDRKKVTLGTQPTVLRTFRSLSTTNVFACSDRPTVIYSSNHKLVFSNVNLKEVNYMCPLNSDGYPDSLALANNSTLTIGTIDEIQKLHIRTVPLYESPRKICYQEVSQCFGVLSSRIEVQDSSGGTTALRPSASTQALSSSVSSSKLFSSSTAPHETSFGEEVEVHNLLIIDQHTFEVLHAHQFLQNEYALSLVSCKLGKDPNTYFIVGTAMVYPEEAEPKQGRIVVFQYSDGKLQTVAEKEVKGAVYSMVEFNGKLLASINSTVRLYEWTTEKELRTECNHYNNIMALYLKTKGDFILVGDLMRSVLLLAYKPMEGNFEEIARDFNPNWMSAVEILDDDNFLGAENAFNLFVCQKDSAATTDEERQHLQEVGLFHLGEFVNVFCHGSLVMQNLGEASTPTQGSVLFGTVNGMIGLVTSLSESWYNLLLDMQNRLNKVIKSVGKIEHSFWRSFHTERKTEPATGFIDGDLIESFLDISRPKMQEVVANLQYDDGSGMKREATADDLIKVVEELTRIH", "assay": "pull-down from 2B4 dead cell lysate, immunoblot with anti-DDB1"}, "[4]": {"molecular_target": "T3, High mobility group box 1 (HMGB1) (UniProt P63158 1-215)", "T3 sequence (looked up)": "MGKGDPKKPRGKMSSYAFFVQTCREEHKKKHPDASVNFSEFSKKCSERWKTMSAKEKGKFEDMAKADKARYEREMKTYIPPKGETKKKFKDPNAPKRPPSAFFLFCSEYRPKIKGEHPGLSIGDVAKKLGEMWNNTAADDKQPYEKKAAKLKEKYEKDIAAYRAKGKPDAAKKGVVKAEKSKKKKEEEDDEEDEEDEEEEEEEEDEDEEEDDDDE", "assay": "pull-down from 2B4 cell lysate, immunoblot with anti-HMGB1"}}, "data": [{"binder": "endogenous FcRγ of mouse peritoneal macrophages (receptor, UniProt P20491 19-86, looked up, whole, on cells; Co-immunoprecipitated from the lysate of thioglycolate-induced, LPS-stimulated peritoneal macrophages) LGEPQLCYILDAVLFLYGIVLTLLYCRLKIQVRKAAIASREKADAVYTGLNTRSQETYETLKHEKPPQ", "values": [{"measurement": "binding result", "setting": "[1]", "value": "binds"}]}, {"binder": "spliceosome-binding protein 130 (SAP130) from 2B4 cell lysate (ligand, UniProt Q921M3 1-1217, looked up, also called Sf3b3; 130-kD protein) MFLYNLTLQRATGISFAIHGNFSGTKQQEIVVSRGKILELLRPDPNTGKVHTLLTVEVFGVIRSLMAFRLTGGTKDYIVVGSDSGRIVILEYQPSKNMFEKIHQETFGKSGCRRIVPGQFLAVDPKGRAVMISAIEKQKLVYILNRDAAARLTISSPLEAHKANTLVYHVVGVDVGFENPMFACLEMDYEEADNDPTGEAAANTQQTLTFYELDLGLNHVVRKYSEPLEEHGNFLITVPGGSDGPSGVLICSENYITYKNFGDQPDIRCPIPRRRNDLDDPERGMIFVCSATHKTKSMFFFLAQTEQGDIFKITLETDEDMVTEIRLKYFDTVPVAAAMCVLKTGFLFVASEFGNHYLYQIAHLGDDDEEPEFSSAMPLEEGDTFFFQPRPLKNLVLVDELDSLSPILFCQIADLANEDTPQLYVACGRGPRSSLRVLRHGLEVSEMAVSELPGNPNAVWTVRRHIEDEFDAYIIVSFVNATLVLSIGETVEEVTDSGFLGTTPTLSCSLLGDDALVQVYPDGIRHIRADKRVNEWKTPGKKTIVKCAVNQRQVVIALTGGELVYFEMDPSGQLNEYTERKEMSADVVCMSLANVPPGEQRSRFLAVGLVDNTVRIISLDPSDCLQPLSMQALPAQPESLCIVEMGGTEKQDELGERGSIGFLYLNIGLQNGVLLRTVLDPVTGDLSDTRTRYLGSRPVKLFRVRMQGQEAVLAMSSRSWLSYSYQSRFHLTPLSYETLEFASGFASEQCPEGIVAISTNTLRILALEKLGAVFNQVAFPLQYTPRKFVIHPESNNLIIIETDHNAYTEATKAQRKQQMAEEMVEAAGEDERELAAEMAAAFLNENLPESIFGAPKAGNGQWASVIRVMNPIQGNTLDLVQLEQNEAAFSVAVCRFSNTGEDWYVLVGVAKDLILSPRSVAGGFVYTYKLVNNGEKLEFLHKTPVEEVPAAIAPFQGRVLIGVGKLLRVYDLGKKKLLRKCENKHIANYISGIQTIGHRVIVSDVQESFIWVRYKRNENQLIIFADDTYPRWVTTASLLDYDTVAGADKFGNICVVRLPPNTNDEVDEDPTGNKALWDRGLLNGASQKAEVIMNYHVGETVLSLQKTTLIPGGSESLVYTTLSGGIGILVPFTSHEDHDFFQHVEMHLRSEHPPLCGRDHLSFRSYYFPVKNVIDGDLCEQFNSMEPNKQKNVSEELDRTPPEVSKKLEDIRTRYAF", "values": [{"measurement": "binding result", "setting": "[2]", "value": "no binding"}]}, {"binder": "hIgG1 Fc-Mincle fusion protein (Ig-Mincle) (Fc fusion, mouse, UniProt Q9R0Q8 46-214, looked up, range 46-214; also called soluble Mincle protein; not shown: human IgG1 Fc region (hIgG Fc lacking a termination codon, from pME18S-SLAMsig-hIgG Fc)) TYRSSQISGQNLQPHRNIKELSCYSEASGSVKNCCPLNWKHYQSSCYFFSTTTLTWSSSLKNCSDMGAHLVVIDTQEEQEFLFRTKPKRKEFYIGLTDQVVEGQWQWVDDTPFTESLSFWDAGEPNNIVLVEDCATIRDSSNSRKNWNDIPCFYSMPWICEMPEISPLD", "values": [{"measurement": "binding result", "setting": "[3]", "value": "no binding"}, {"measurement": "binding result", "setting": "[4]", "value": "no binding"}]}]}
